The record followed here is the supplement of paper PMC9112550, “Optimization of the antimicrobial peptide Bac7 by deep mutational scanning” (BMC Biology, 2022).

In the data set the test system is Escherichia coli TOP10. The data set can be described thus: shrunken log2 fold change of peptide-encoding DNA abundance (4.5 h post-induction vs induction); higher = less antimicrobial activity (less host growth inhibition). The following applies: time post-induction: 4.5 h; library: site-saturation at positions 5, 18, 19, 20.
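Note: peptides expressed intracellularly from a pBAD plasmid library in pooled LB shake-flask culture, induced with 0.3% L-arabinose, DNA abundance read by NGS, three biological replicates, DESeq2 with apeglm shrinkage.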

On to RRIRWRPPRLPRPRPRPTFTPRP, for which the “shrunken log2 fold change” value stood at 0.195.

With RRIRGRPPRLPRPRPRPKYPPRP, the “shrunken log2 fold change” value was 0.0365.

Turning to RRIRTRPPRLPRPRPRPWNCPRP, the “shrunken log2 fold change” value was -0.214.

Consider RRIRYRPPRLPRPRPRPMAFPRP, for which the “shrunken log2 fold change” value was -0.557.

As for RRIRHRPPRLPRPRPRPCTRPRP, the “shrunken log2 fold change” value is 0.0237.

RRIRIRPPRLPRPRPRPVFNPRP: the “shrunken log2 fold change” value is -0.602.

Consider RRIRLRPPRLPRPRPRPEKCPRP, for which the “shrunken log2 fold change” value was -0.0157.

For the sequence RRIRIRPPRLPRPRPRPRSYPRP, the “shrunken log2 fold change” value is -0.381.

In the case of RRIRTRPPRLPRPRPRPKDSPRP, the “shrunken log2 fold change” value came to 0.0052.

Turning to RRIRKRPPRLPRPRPRPGHRPRP, the “shrunken log2 fold change” value worked out at 0.118.

As to RRIRWRPPRLPRPRPRPKLKPRP, the “shrunken log2 fold change” value amounted to 0.507.

RRIRLRPPRLPRPRPRPFIGPRP: the “shrunken log2 fold change” value is -0.305.

For RRIRLRPPRLPRPRPRPEVTPRP, the “shrunken log2 fold change” value was -0.046.

For RRIRCRPPRLPRPRPRPGPKPRP, the “shrunken log2 fold change” value was 0.3.

Turning to RRIRYRPPRLPRPRPRPEGLPRP, the “shrunken log2 fold change” value is -0.0136.

Consider RRIRERPPRLPRPRPRPGEKPRP, for which the “shrunken log2 fold change” value is -0.00142.

As to RRIRLRPPRLPRPRPRPNPYPRP, the “shrunken log2 fold change” value was -0.0545.

RRIRVRPPRLPRPRPRPRYEPRP: the “shrunken log2 fold change” value is -0.273.

On to RRIRWRPPRLPRPRPRPFAKPRP, for which the “shrunken log2 fold change” value turned out to be 0.382.

With RRIRKRPPRLPRPRPRPPVGPRP, the “shrunken log2 fold change” value was determined as 1.04.

In the case of RRIRYRPPRLPRPRPRPSMMPRP, the “shrunken log2 fold change” value is -1.21.

In the case of RRIRWRPPRLPRPRPRPYCYPRP, the “shrunken log2 fold change” value is -0.562.

For RRIRSRPPRLPRPRPRPQMQPRP, the “shrunken log2 fold change” value was found to be 0.00783.

For RRIRPRPPRLPRPRPRPLEPPRP, the “shrunken log2 fold change” value was determined as 0.0434.

Turning to RRIRTRPPRLPRPRPRPKVWPRP, the “shrunken log2 fold change” value was determined as 0.325.

Regarding RRIRDRPPRLPRPRPRPELCPRP, the “shrunken log2 fold change” value was -0.0337.

RRIRNRPPRLPRPRPRPCSAPRP: the “shrunken log2 fold change” value was -0.292.

As to RRIRYRPPRLPRPRPRPFPAPRP, the “shrunken log2 fold change” value is -0.467.

In the case of RRIRERPPRLPRPRPRPWQPPRP, the “shrunken log2 fold change” value was 0.0778.

On to RRIRNRPPRLPRPRPRPVPCPRP, for which the “shrunken log2 fold change” value is -0.237.

As to RRIRKRPPRLPRPRPRPMKTPRP, the “shrunken log2 fold change” value came to 0.0431.

As for RRIRERPPRLPRPRPRPIQHPRP, the “shrunken log2 fold change” value is -0.529.

In the case of RRIRQRPPRLPRPRPRPYFMPRP, the “shrunken log2 fold change” value was -0.89.

On to RRIRLRPPRLPRPRPRPNHTPRP, for which the “shrunken log2 fold change” value was -0.33.

As to RRIRDRPPRLPRPRPRPSRRPRP, the “shrunken log2 fold change” value came out at 0.146.

Consider RRIRKRPPRLPRPRPRPGNLPRP, for which the “shrunken log2 fold change” value worked out at 0.0368.

On to RRIRGRPPRLPRPRPRPPERPRP, for which the “shrunken log2 fold change” value is 1.02.

On to RRIRQRPPRLPRPRPRPHSAPRP, for which the “shrunken log2 fold change” value was -0.0562.

Take RRIRFRPPRLPRPRPRPCQHPRP: the “shrunken log2 fold change” value was -0.397.

As for RRIRIRPPRLPRPRPRPTENPRP, the “shrunken log2 fold change” value was 0.0227.

Regarding RRIRNRPPRLPRPRPRPFTVPRP, the “shrunken log2 fold change” value was -0.00101.

For RRIRQRPPRLPRPRPRPNQYPRP, the “shrunken log2 fold change” value was -0.529.

Consider RRIRHRPPRLPRPRPRPNCPPRP, for which the “shrunken log2 fold change” value is -0.152.

As to RRIRYRPPRLPRPRPRPDPEPRP, the “shrunken log2 fold change” value was -0.345.

As for RRIRERPPRLPRPRPRPQKGPRP, the “shrunken log2 fold change” value is -0.213.

As to RRIRYRPPRLPRPRPRPNRWPRP, the “shrunken log2 fold change” value came out at 0.135.

In the case of RRIRVRPPRLPRPRPRPWAVPRP, the “shrunken log2 fold change” value came out at 0.157.

Take RRIRARPPRLPRPRPRPNIVPRP: the “shrunken log2 fold change” value worked out at 0.0466.

On to RRIRMRPPRLPRPRPRPPEKPRP, for which the “shrunken log2 fold change” value came out at 2.49.

Turning to RRIRDRPPRLPRPRPRPQWHPRP, the “shrunken log2 fold change” value is -0.292.

With RRIRPRPPRLPRPRPRPILHPRP, the “shrunken log2 fold change” value is -0.277.

In the case of RRIRFRPPRLPRPRPRPNFAPRP, the “shrunken log2 fold change” value is -0.125.

On to RRIRLRPPRLPRPRPRPDACPRP, for which the “shrunken log2 fold change” value came to 0.252.

As to RRIRDRPPRLPRPRPRPKLDPRP, the “shrunken log2 fold change” value worked out at 0.0966.

Consider RRIRLRPPRLPRPRPRPTKVPRP, for which the “shrunken log2 fold change” value is -0.0842.

Turning to RRIRMRPPRLPRPRPRPRQLPRP, the “shrunken log2 fold change” value amounted to 0.691.

For RRIRWRPPRLPRPRPRPILAPRP, the “shrunken log2 fold change” value turned out to be 0.364.

Take RRIRKRPPRLPRPRPRPMPIPRP: the “shrunken log2 fold change” value is 0.0778.

As for RRIRGRPPRLPRPRPRPIRKPRP, the “shrunken log2 fold change” value came out at 0.124.

Take RRIRIRPPRLPRPRPRPQYVPRP: the “shrunken log2 fold change” value was -0.0421.

For the sequence RRIRRRPPRLPRPRPRPVANPRP, the “shrunken log2 fold change” value turned out to be 0.207.

Turning to RRIRSRPPRLPRPRPRPNSGPRP, the “shrunken log2 fold change” value worked out at 0.0845.

For RRIRVRPPRLPRPRPRPHTAPRP, the “shrunken log2 fold change” value is -0.00836.

As for RRIRTRPPRLPRPRPRPQPKPRP, the “shrunken log2 fold change” value is 0.151.

Turning to RRIRRRPPRLPRPRPRPKVDPRP, the “shrunken log2 fold change” value amounted to 0.0529.

For the sequence RRIRNRPPRLPRPRPRPHSFPRP, the “shrunken log2 fold change” value is -0.258.

Consider RRIRLRPPRLPRPRPRPYDDPRP, for which the “shrunken log2 fold change” value is -0.167.

With RRIRVRPPRLPRPRPRPPPDPRP, the “shrunken log2 fold change” value was found to be 0.834.

RRIRNRPPRLPRPRPRPQLPPRP: the “shrunken log2 fold change” value was -0.352.

Take RRIRDRPPRLPRPRPRPTDMPRP: the “shrunken log2 fold change” value stood at 0.284.

On to RRIRPRPPRLPRPRPRPTCHPRP, for which the “shrunken log2 fold change” value came to 1.02.

Turning to RRIRNRPPRLPRPRPRPHLKPRP, the “shrunken log2 fold change” value is -0.875.

For RRIRPRPPRLPRPRPRPDMWPRP, the “shrunken log2 fold change” value was -0.103.

Consider RRIRERPPRLPRPRPRPRHWPRP, for which the “shrunken log2 fold change” value was found to be 0.0819.

In the case of RRIRERPPRLPRPRPRPSTHPRP, the “shrunken log2 fold change” value was -0.663.

Take RRIRNRPPRLPRPRPRPFLTPRP: the “shrunken log2 fold change” value was -0.505.

As for RRIRTRPPRLPRPRPRPTEGPRP, the “shrunken log2 fold change” value came out at 0.1.

Regarding RRIRHRPPRLPRPRPRPTKIPRP, the “shrunken log2 fold change” value is -0.316.

RRIRPRPPRLPRPRPRPILEPRP: the “shrunken log2 fold change” value was -0.132.

In the case of RRIRMRPPRLPRPRPRPIRKPRP, the “shrunken log2 fold change” value is 0.553.

Regarding RRIRDRPPRLPRPRPRPWPVPRP, the “shrunken log2 fold change” value turned out to be 0.531.

With RRIRLRPPRLPRPRPRPPWWPRP, the “shrunken log2 fold change” value came out at 0.695.

As to RRIRRRPPRLPRPRPRPRTPPRP, the “shrunken log2 fold change” value amounted to 0.616.

As to RRIRQRPPRLPRPRPRPDLTPRP, the “shrunken log2 fold change” value was found to be 0.00424.

RRIRGRPPRLPRPRPRPIQTPRP: the “shrunken log2 fold change” value was found to be 0.0411.

Turning to RRIRERPPRLPRPRPRPAKPPRP, the “shrunken log2 fold change” value was -0.248.

Consider RRIRHRPPRLPRPRPRPYAVPRP, for which the “shrunken log2 fold change” value was -0.0274.

For RRIRKRPPRLPRPRPRPVRAPRP, the “shrunken log2 fold change” value came out at 1.27.

Take RRIRCRPPRLPRPRPRPTQIPRP: the “shrunken log2 fold change” value came to 0.452.

As to RRIRDRPPRLPRPRPRPPSTPRP, the “shrunken log2 fold change” value is -0.0415.

Turning to RRIRGRPPRLPRPRPRPKWIPRP, the “shrunken log2 fold change” value stood at 0.118.

Consider RRIRARPPRLPRPRPRPRDNPRP, for which the “shrunken log2 fold change” value turned out to be 0.295.

Regarding RRIRKRPPRLPRPRPRPWCEPRP, the “shrunken log2 fold change” value worked out at 0.157.

As for RRIRKRPPRLPRPRPRPQRDPRP, the “shrunken log2 fold change” value turned out to be 0.858.

Regarding RRIRCRPPRLPRPRPRPGPNPRP, the “shrunken log2 fold change” value was 0.296.

Consider RRIRLRPPRLPRPRPRPKMFPRP, for which the “shrunken log2 fold change” value amounted to 0.0156.

Take RRIRTRPPRLPRPRPRPKSFPRP: the “shrunken log2 fold change” value stood at 0.0134.

Turning to RRIRYRPPRLPRPRPRPQFRPRP, the “shrunken log2 fold change” value is -0.18.

RRIRRRPPRLPRPRPRPDTTPRP: the “shrunken log2 fold change” value amounted to 0.192.

As to RRIRDRPPRLPRPRPRPWDSPRP, the “shrunken log2 fold change” value was -0.000687.

For RRIRPRPPRLPRPRPRPWLDPRP, the “shrunken log2 fold change” value amounted to 0.164.

Turning to RRIRDRPPRLPRPRPRPLVDPRP, the “shrunken log2 fold change” value came out at 0.11.

With RRIRRRPPRLPRPRPRPRAGPRP, the “shrunken log2 fold change” value was determined as 0.638.

As for RRIRDRPPRLPRPRPRPTTMPRP, the “shrunken log2 fold change” value was determined as 0.0275.

With RRIRFRPPRLPRPRPRPQHVPRP, the “shrunken log2 fold change” value was -0.315.

RRIRCRPPRLPRPRPRPFLNPRP: the “shrunken log2 fold change” value was -0.602.

Regarding RRIRHRPPRLPRPRPRPYVIPRP, the “shrunken log2 fold change” value was -0.00839.

With RRIRWRPPRLPRPRPRPTGWPRP, the “shrunken log2 fold change” value amounted to 0.594.

For the sequence RRIRARPPRLPRPRPRPKTYPRP, the “shrunken log2 fold change” value is -0.214.

Regarding RRIRARPPRLPRPRPRPAQCPRP, the “shrunken log2 fold change” value worked out at 0.469.

On to RRIRHRPPRLPRPRPRPEQNPRP, for which the “shrunken log2 fold change” value was 0.0816.

RRIRTRPPRLPRPRPRPSLNPRP: the “shrunken log2 fold change” value is -0.555.

Regarding RRIRIRPPRLPRPRPRPDEEPRP, the “shrunken log2 fold change” value is -0.00176.

Turning to RRIRDRPPRLPRPRPRPMTHPRP, the “shrunken log2 fold change” value was found to be 0.0105.

For the sequence RRIRTRPPRLPRPRPRPCLAPRP, the “shrunken log2 fold change” value is -0.307.

For the sequence RRIRGRPPRLPRPRPRPITKPRP, the “shrunken log2 fold change” value is -0.0602.

As to RRIRQRPPRLPRPRPRPCMSPRP, the “shrunken log2 fold change” value is -0.234.

In the case of RRIRARPPRLPRPRPRPQHNPRP, the “shrunken log2 fold change” value is -0.26.

For RRIRIRPPRLPRPRPRPVWGPRP, the “shrunken log2 fold change” value turned out to be 0.0298.

As to RRIRCRPPRLPRPRPRPCLAPRP, the “shrunken log2 fold change” value is -0.257.

Turning to RRIRDRPPRLPRPRPRPMGLPRP, the “shrunken log2 fold change” value was -0.00663.

On to RRIRSRPPRLPRPRPRPRFTPRP, for which the “shrunken log2 fold change” value is -0.115.

As for RRIRLRPPRLPRPRPRPANCPRP, the “shrunken log2 fold change” value was -0.291.

Consider RRIRSRPPRLPRPRPRPGHQPRP, for which the “shrunken log2 fold change” value was -0.167.

RRIRSRPPRLPRPRPRPINMPRP: the “shrunken log2 fold change” value is -0.928.
